Experimental data taken from publication PMC3392491.

Biological target: T1, Dda K38A (bacteriophage T4, UniProt P32270 1-439, K38A)
T1 sequence: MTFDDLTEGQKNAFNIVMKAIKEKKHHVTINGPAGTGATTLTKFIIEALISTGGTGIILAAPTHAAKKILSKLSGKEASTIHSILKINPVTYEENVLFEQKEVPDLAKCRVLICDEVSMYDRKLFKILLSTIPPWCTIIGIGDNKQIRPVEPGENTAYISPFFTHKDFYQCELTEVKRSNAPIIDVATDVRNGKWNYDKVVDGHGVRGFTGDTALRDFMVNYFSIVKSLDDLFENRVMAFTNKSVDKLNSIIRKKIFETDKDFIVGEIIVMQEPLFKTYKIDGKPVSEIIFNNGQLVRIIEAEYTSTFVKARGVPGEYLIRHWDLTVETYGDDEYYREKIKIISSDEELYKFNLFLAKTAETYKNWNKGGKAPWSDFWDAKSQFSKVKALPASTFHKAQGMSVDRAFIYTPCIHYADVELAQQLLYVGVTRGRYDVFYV
Experiment: X-ray crystallography

TTTTTTTT (ssDNA) [dT8]
binding result: binds
